Measurements as given in PMC9637739.

Tests used:
[1] = target: S. pneumoniae IgA1P-E1605A (Streptococcus pneumoniae) (UniProt Q59947); experiment: ELISA; metallo-IgA1P mutant coated on Nunc MaxiSorp plate (20 nM by the methods, 100 nM by the legend of Fig. 2d), blocked 2 h at room temperature, human IgA1 with kappa LC added for 2 h, detected with anti-human IgA HRP and ABTS; estimated Kd
[2] = target: G. haemolysans IgA1P-E1848A (residues 907-2201) (Gemella haemolysans); experiment: as above

Human IgA1 with kappa LC (monomeric) (antibody)
Kd [1]: 798 µM | Kd [2]: 1090 µM
